The assay concerns the target bone sialoprotein, full length 90 kDa, of UMR106-01 osteoblastic cultures (rat (endogenous in UMR106-01)) (UniProt P13839). In words: co-elution on anion-exchange chromatography; EDTA extract of mineralizing UMR106-01 cultures on POROS 20 HQ in 0.05 M sodium acetate pH 5.2, 8 M urea, 0.1% CHAPS; 0 to 0.6 M NaCl gradient, then 2 M NaCl step; fractions read by dot blot and Western blot with anti-BSP and anti-6b antibodies.
Chain of UniProt P13839 (P13839 17-320): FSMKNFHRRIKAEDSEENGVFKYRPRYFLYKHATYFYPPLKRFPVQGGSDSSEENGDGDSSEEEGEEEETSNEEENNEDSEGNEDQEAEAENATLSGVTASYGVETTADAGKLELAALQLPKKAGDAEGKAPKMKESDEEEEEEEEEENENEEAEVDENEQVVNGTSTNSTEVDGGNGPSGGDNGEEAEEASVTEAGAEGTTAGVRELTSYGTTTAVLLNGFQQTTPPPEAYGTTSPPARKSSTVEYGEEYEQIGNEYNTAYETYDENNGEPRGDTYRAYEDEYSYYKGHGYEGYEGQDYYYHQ

Turning to “60 kDa Col11a1 N-terminal domain (NTD) fragment with the “6b” exon sequence (domain or fragment)”, the percent of the fragment co-eluting with BSP is over 80%.
